Laboratory results as given in the supplement of paper PMC11246515.
± gives the standard deviation of the averaged measurements.

Assay: total protein half-life in vivo (active degradation + dilution); higher = more stable protein
[1] = E. coli NCM3722 delta-clpP delta-lon delta-hslV, growth: N-lim chemostat, doubling time 6 h
[2] = E. coli NCM3722 delta-clpP, growth: N-lim chemostat, doubling time 6 h
[3] = E. coli NCM3722 delta-hslV, growth: N-lim chemostat, doubling time 6 h
[4] = E. coli NCM3722 delta-lon, growth: N-lim chemostat, doubling time 6 h
[5] = E. coli NCM3722 delta-smpB, growth: N-lim chemostat, doubling time 6 h
[6] = wild type E. coli NCM3722, growth: C-lim chemostat, doubling time 3 h
[7] = wild type E. coli NCM3722, growth: C-lim chemostat, doubling time 6 h
[8] = wild type E. coli NCM3722, growth: C-lim chemostat, doubling time 12 h
[9] = wild type E. coli NCM3722, growth: N-lim chemostat, doubling time 6 h
[10] = wild type E. coli NCM3722, growth: N-lim chemostat, doubling time 12 h
[11] = wild type E. coli NCM3722, growth: P-lim chemostat, doubling time 6 h
[12] = wild type E. coli NCM3722, growth: P-lim chemostat, doubling time 12 h

| Sequence | total protein half-life in vivo [1] [h] | total protein half-life in vivo [2] [h] | total protein half-life in vivo [3] [h] | total protein half-life in vivo [4] [h] | total protein half-life in vivo [5] [h] | total protein half-life in vivo [6] [h] | total protein half-life in vivo [7] [h] | total protein half-life in vivo [8] [h] | total protein half-life in vivo [9] [h] | total protein half-life in vivo [10] [h] | total protein half-life in vivo [11] [h] | total protein half-life in vivo [12] [h] |
| --- | --- | --- | --- | --- | --- | --- | --- | --- | --- | --- | --- | --- |
| MESLNQFVNSLAPKLSHWRRDFHHYAESGWVEFRTATLVAEELHQLGYSLALGREVVNESSRMGLPDEFTLQREFERARQQGALAQWIAAFEGGFTGIVATLDTGRPGPVMAFRVDMDALDLSEEQDVSHRPYRDGFASCNAGMMHACGHDGHTAIGLGLAHTLKQFESGLHGVIKLIFQPAEEGTRGARAMVDAGVVDDVDYFTAVHIGTGVPAGTVVCGSDNFMATTKFDAHFTGTAAHAGAKPEDGHNALLAAAQATLALHAIAPHSEGASRVNVGVMQAGSGRNVVPASALLKVETRGASDVINQYVFDRAQQAIQGAATMYGVGVETRLMGAATASSPSPQWVAWLQSQAAQVAGVNQAIERVEAPAGSEDATLMMARVQQHQGQASYVVFGTQLAAGHHNEKFDFDEQVLAIAVETLARTALNFPWTRGI | 6.21 ± 1.1 | 2.65 ± 0.05 | 3.12 ± 0.28 | 3.18 ± 0.22 | 2.86 ± 0.093 | 1.71 ± 0.65 | 5.22 | 5.67 ± 0.081 | 2.9 ± 0.053 | 4.45 ± 0.16 | 1.87 | 6.79 |
| MESNNGEAKIQKVKNWSPVWIFPIVTALIGAWVLFYHYSHQGPEVTLITANAEGIEGGKTTIKSRSVDVGVVESATLADDLTHVEIKARLNSGMEKLLHKDTVFWVVKPQIGREGISGLGTLLSGVYIELQPGAKGSKMDKYDLLDSPPLAPPDAKGIRVILDSKKAGQLSPGDPVLFRGYRVGSVETSTFDTQKRNISYQLFINAPYDRLVTNNVRFWKDSGIAVDLTSAGMRVEMGSLTTLLSGGVSFDVPEGLDLGQPVAPKTAFVLYDDQKSIQDSLYTDHIDYLMFFKDSVRGLQPGAPVEFRGIRLGTVSKVPFFAPNMRQTFNDDYRIPVLIRIEPERLKMQLGENADVVEHLGELLKRGLRGSLKTGNLVTGALYVDLDFYPNTPAITGIREFNGYQIIPTVSGGLAQIQQRLMEALDKINKLPLNPMIEQATSTLSESQRTMKNLQTTLDSMNKILASQSMQQLPTDMQSTLRELNRSMQGFQPGSAAYNKMVADMQRLDQVLRELQPVLKTLNEKSNALVFEAKDKKDPEPKRAKQ | 6.4 ± 0.49 | 7 ± 0.91 |  | 6.43 ± 0.21 | 5.75 ± 0.35 | 3.341 ± 0.027 | 7.13 ± 0.87 | 12.8 ± 1.1 | 5.99 ± 0.28 | 12.9 ± 0.71 | 6.06 ± 0.058 |  |
| METFNSLFMVSPLLLGVLFFVAMLAGFIDSIAGGGGLLTIPALMAAGMSPANALATNKLQACGGSISATIYFIRRKVVSLSDQKLNIAMTFVGSMSGALLVQYVQADVLRQILPILVICIGLYFLLMPKLGEEDRQRRMYGLPFALIAGGCVGFYDGFFGPAAGSFYALAFVTLCGFNLAKATAHAKLLNATSNIGGLLLFILGGKVIWATGFVMLVGQFLGARMGSRLVLSKGQKLIRPMIVIVSAVMSAKLLYDSHGQEILHWLGMN [P0AD30] | 6.4 |  |  | 6.29 ± 0.21 | 6.13 |  | 5.18 ± 0.11 |  | 4.37 |  |  | 10 ± 3.5 |
| METKDLIVIGGGINGAGIAADAAGRGLSVLMLEAQDLACATSSASSKLIHGGLRYLEHYEFRLVSEALAEREVLLKMAPHIAFPMRFRLPHRPHLRPAWMIRIGLFMYDHLGKRTSLPGSTGLRFGANSVLKPEIKRGFEYSDCWVDDARLVLANAQMVVRKGGEVLTRTRATSARRENGLWIVEAEDIDTGKKYSWQARGLVNATGPWVKQFFDDGMHLPSPYGIRLIKGSHIVVPRVHTQKQAYILQNEDKRIVFVIPWMDEFSIIGTTDVEYKGDPKAVKIEESEINYLLNVYNTHFKKQLSRDDIVWTYSGVRPLCDDESDSPQAITRDYTLDIHDENGKAPLLSVFGGKLTTYRKLAEHALEKLTPYYQGIGPAWTKESVLPGGAIEGDRDDYAARLRRRYPFLTESLARHYARTYGSNSELLLGNAGTVSDLGEDFGHEFYEAELKYLVDHEWVRRADDALWRRTKQGMWLNADQQSRVSQWLVEYTQQRLSLAS | 6.86 ± 0.86 | 5.96 ± 0.25 | 2.71 ± 0.75 | 2.76 ± 0.13 | 2.4 ± 0.17 | 2.1 ± 0.094 | 3.51 ± 0.53 | 4.92 ± 0.65 | 2.83 ± 0.088 | 4.179 ± 0.033 | 2.92 ± 0.053 | 5.02 ± 0.13 |
| METKNLTIGERIRYRRKNLKHTQRSLAKALKISHVSVSQWERGDSEPTGKNLFALSKVLQCSPTWILFGDEDKQPTPPVEKPVALSPKELELLELFNALPESEQDTQLAEMRARVKNFNKLFEELLKARQRTNKR | 6.79 ± 1 | 5.32 ± 0.38 | 5.9 ± 0.15 | 6.27 ± 0.067 | 5.86 ± 0.56 | 3.21 ± 0.043 | 5.25 ± 0.77 | 6.96 ± 1.7 | 4.971 ± 0.028 | 10.2 ± 2.7 | 5.33 ± 1 | 10.7 ± 0.66 |
| METNIVEVENFVQQSEERRGSAFTQEVKRYLERYPNTQYVDVLLTDLNGCFRGKRIPVSSLKKLEKGCYFPASVFAMDILGNVVEEAGLGQEMGEPDRTCVPVLGSLTPSAADPEFIGQMLLTMVDEDGAPFDVEPRNVLNRLWQQLRQRGLFPVVAVELEFYLLDRQRDAEGYLQPPCAPGTDDRNTQSQVYSVDNLNHFADVLNDIDELAQLQLIPADGAVAEASPGQFEINLYHTDNVLEACDDALALKRLVRLMAEKHKMHATFMAKPYEEHAGSGMHIHISMQNNRGENVLSDAEGEDSPLLKKMLAGMIDLMPSSMALLAPNVNSYRRFQPGMYVPTQASWGHNNRTVALRIPCGDRHNHRVEYRVAGADANPYLVMAAIFAGILHGLDNELPLQEEVEGNGLEQEGLPFPIRQSDALGEFIENDHLRRYLGERFCHVYHACKNDELLQFERLITETEIEWMLKNA | 3.73 ± 1.2 | 2.89 ± 0.19 | 0.535 ± 0.066 |  | 0.507 | 0.748 | 1.47 | 0.976 |  |  |  |  |
| METVAYADFARLEMRVGKIVEVKRHENADKLYIVQVDVGQKTLQTVTSLVPYYSEEELMGKTVVVLCNLQKAKMRGETSECMLLCAETDDGSESVLLTPERMMPAGVRVV | 5.14 ± 0.11 | 5.33 |  |  |  | 2.97 ± 0.48 | 4.74 ± 0.58 | 8.53 ± 0.87 |  |  |  |  |
| METYAVFGNPIAHSKSPFIHQQFAQQLNIEHPYGRVLAPINDFINTLNAFFSAGGKGANVTVPFKEEAFARADELTERAALAGAVNTLMRLEDGRLLGDNTDGVGLLSDLERLSFIRPGLRILLIGAGGASRGVLLPLLSLDCAVTITNRTVSRAEELAKLFAHTGSIQALSMDELEGHEFDLIINATSSGISGDIPAIPSSLIHPGIYCYDMFYQKGKTPFLAWCEQRGSKRNADGLGMLVAQAAHAFLLWHGVLPDVEPVIKQLQEELSA | 4 ± 0.39 | 4.39 ± 0.89 | 4.03 ± 0.27 | 6.18 ± 2.5 | 3.9 ± 0.14 | 2.4 ± 0.59 | 5.428 ± 0.014 | 8.94 ± 2.3 | 4.16 ± 0.36 | 6.95 ± 0.015 | 6.01 ± 0.18 | 11.7 ± 1.5 |
